Patent publication US20190127478A1 (published 2019)

Key:
Assay in all cases: Octet RED 96
FcRn = biological target: FcRn
FcgRIIIaV = biological target: FcgRIIIaV
FcgRIa = biological target: FcgRIa

Kd (FcRn): 9.6 nM
Kd (FcgRIIIaV): 740 nM
Kd (FcgRIa): 750 nM
B1: BCD-100 IgG1* (antibody)
heavy: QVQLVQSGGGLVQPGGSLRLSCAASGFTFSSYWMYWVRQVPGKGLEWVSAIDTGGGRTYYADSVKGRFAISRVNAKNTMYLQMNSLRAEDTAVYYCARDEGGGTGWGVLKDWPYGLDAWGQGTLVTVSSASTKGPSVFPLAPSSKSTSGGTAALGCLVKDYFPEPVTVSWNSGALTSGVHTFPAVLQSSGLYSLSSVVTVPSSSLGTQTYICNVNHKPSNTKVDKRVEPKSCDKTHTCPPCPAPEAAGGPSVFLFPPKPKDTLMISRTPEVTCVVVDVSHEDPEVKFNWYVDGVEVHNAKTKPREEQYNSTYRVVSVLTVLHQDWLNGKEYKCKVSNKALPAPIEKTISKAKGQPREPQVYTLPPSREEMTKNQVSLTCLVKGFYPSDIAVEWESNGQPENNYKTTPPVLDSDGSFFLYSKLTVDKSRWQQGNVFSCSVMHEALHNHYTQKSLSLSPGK
light: QPVLTQPLSVSVALGQTARITCGGNNIGSKNVHWYQQKPGQAPVLVIYRDSNRPSGIPERFSGSNSGNTATLTISRAQAGDEADYYCQVWDSSTAVFGTGTKLTVLQRTVAAPSVFIFPPSDEQLKSGTASVVCLLNNFYPREAKVQWKVDNALQSGNSQESVTEQDSKDSTYSLSSTLTLSKADYEKHKVYACEVTHQGLSSPVTKSFNRGEC
